# The supplement of paper PMC9732359
# ± gives the uncertainty stated by the source.
# Assay: protein stability index of a GFP-peptide fusion (yeast GPS) (PSI 1-4); higher = more stable; sorted into four equal gates, so the index is relative within each strain
# How it was run: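 For each peptide, the protein stability index sums the read frequency in every gate after multiplying it by the gate number. Read frequencies came from plasmids that were PCR-amplified from each gate and Illumina-sequenced, with reads assigned to strains by barcodes. The gates were four equal bins of GFP/Cherry fluorescence ratio applied to mid-log yeast in leucine-free medium carrying a pooled library of tiled 17-residue yeast protein peptides fused downstream of GFP on a Cherry-expressing plasmid.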
Sequence,protein stability index (doa10∆),protein stability index (pdr5∆),protein stability index (san1∆),protein stability index (ubr1∆)
DAIWSLVFQLAKNFSAQ [SRB8],2.08 ± 0.049,2.56 ± 0.053,2.4 ± 0.054,2.61 ± 0.041
MAPFRQDSILIIYPRSQ [ARP9],2.41 ± 0.28,2.69 ± 0.17,2.82 ± 0.083,2.58 ± 0.076
IKKKKKKSKNGTISKTG [SRP14],3.16 ± 0.19,3.17 ± 0.15,3.11 ± 0.1,3.54 ± 0.11
NLKDLNNVKQMVMAGSK [RPO21],1.81 ± 0.12,1.95 ± 0.12,,1.92 ± 0.077
ANSSITPAFGSNNTGNT [YJL041W/NSP1],2.65 ± 0.068,2.86 ± 0.049,2.72 ± 0.048,2.87 ± 0.031
QLEGFESRKAFFLGYMI [RPB2],1.22 ± 0.088,2.42 ± 0.075,1.41 ± 0.079,2.49 ± 0.045
FMEIVLEYNVALNDVYL [YML031W/NDC1],2.47 ± 0.09,2.3 ± 0.084,2.22 ± 0.11,1.66 ± 0.064
KKAFTSYDRTLLIADSR [RPS16A],2.25 ± 0.044,2.48 ± 0.073,1.9 ± 0.079,2.24 ± 0.059
GIRVQDSVILASSKAVT [PRE1],2.54 ± 0.065,2.73 ± 0.076,2.46 ± 0.068,2.38 ± 0.05
ANTSNNLFGATANANKP [YJL041W/NSP1],3.32 ± 0.066,3.27 ± 0.044,3.24 ± 0.043,3.22 ± 0.045
KKEKLDSGEVDADGDID [DPB4],3.05 ± 0.15,3.4 ± 0.17,3.29 ± 0.12,3.36 ± 0.11
KNTMFEKSDALVGVYRQ [SMC1],3.27 ± 0.18,2.88 ± 0.11,2.7 ± 0.081,2.94 ± 0.23
LVDKRIDMLPMLLGTDL [DIS3],2.17 ± 0.083,2.54 ± 0.1,2.27 ± 0.08,2.34 ± 0.059
FTICLNDRNPRLNENKK [CSN12],3.03 ± 0.053,3.21 ± 0.056,3.11 ± 0.043,3.06 ± 0.043
NVTQNEQQWITRAQYLA [SRP68],1.42 ± 0.08,1.54 ± 0.072,1.19 ± 0.13,1.28 ± 0.064
MKLNISYPVNGSQKTFE [RPS6A],2.65 ± 0.17,2.77 ± 0.12,2.79 ± 0.12,2.94 ± 0.13
LALSSNISRDFQSYIVS [COR1],2.03 ± 0.073,2.71 ± 0.084,2.09 ± 0.1,1.88 ± 0.047
FSMGHIRSSSVSLVAEA [MED4],1.52 ± 0.078,1.67 ± 0.057,1.31 ± 0.14,1.69 ± 0.033
DAFRVHICGICGLMTVI [RPB2],1.33 ± 0.084,1.43 ± 0.095,1.34 ± 0.16,1.43 ± 0.062
PGYVDIVKTSSGNEMPP [RPS19A],2.67 ± 0.19,2.86 ± 0.11,2.84 ± 0.11,3.11 ± 0.088
MGVPIYGIVAMAATATD [FAS2],1.34 ± 0.068,1.52 ± 0.052,1.54 ± 0.089,1.47 ± 0.051
NRSVVYFKLDLTSDLVY [RRI2],1.37 ± 0.14,1.92 ± 0.28,,1.39 ± 0.078
MMLGEHLMSWSKTGIIA [SIN4],1.6 ± 0.11,1.24 ± 0.11,1.06 ± 0.13,1.53 ± 0.27
EQDILDLIAEQVVTDYN [SSN2],3 ± 0.17,3.44 ± 0.12,3.08 ± 0.18,2.47 ± 0.14
TSLVANENDKIYLLFQS [YDL116W/NUP84],2.37 ± 0.058,2.59 ± 0.05,2.42 ± 0.054,2.79 ± 0.035
TFNSKPVRTIVPISTSQ [SIR4],2.32 ± 0.037,2.46 ± 0.037,2.42 ± 0.039,2.35 ± 0.028

Sequence,protein stability index (doa10∆),protein stability index (pdr5∆),protein stability index (san1∆),protein stability index (ubr1∆)
QIGQVPLAPAPINLPPQ [SNF5],2.35 ± 0.08,2.47 ± 0.081,2.4 ± 0.14,2.5 ± 0.079
FTYNKFLLNQNKQLSQS [YIL149C/MLP2],2.68 ± 0.069,2.96 ± 0.06,3.15 ± 0.06,3.17 ± 0.062
VLVYDDKLEKVTHDCYR [RPC34],2.57 ± 0.1,3.18 ± 0.053,2.94 ± 0.069,2.96 ± 0.062
GVYKRDNRTKSTTIKNI [SMC4],1.62 ± 0.06,1.54 ± 0.062,1.33 ± 0.14,1.23 ± 0.075
YLNSRIIPTTLEEQQQL [YML103C/NUP188],1.97 ± 0.039,2.04 ± 0.042,1.82 ± 0.071,2.13 ± 0.052
NLLPKKSAKATKASQEL [HTA1],2.93 ± 0.1,3.09 ± 0.12,3.17 ± 0.069,3.03 ± 0.088
SIIKAKLPLLNESLIPL [YML103C/NUP188],1.68 ± 0.06,2.18 ± 0.067,1.84 ± 0.082,1.99 ± 0.05
LSEEETLLVIRRLHKVL [SNF2],1.7 ± 0.086,2.22 ± 0.07,1.84 ± 0.11,2.21 ± 0.053
DHKYVCTFSMEPYHFIS [SRB8],2.37 ± 0.061,2.03 ± 0.047,1.83 ± 0.059,2.09 ± 0.043
SKSTSMKLSMPPEVTSS [POP1],2.4 ± 0.053,2.59 ± 0.062,2.44 ± 0.057,2.54 ± 0.035
RTLTAVHDKILEDLVFP [RPS7A],3.24 ± 0.13,3.15 ± 0.073,3.28 ± 0.059,3.25 ± 0.098
RNESLKNNSSIRNVIMS [SRB8],1.81 ± 0.035,2.11 ± 0.049,1.87 ± 0.084,2.09 ± 0.039
HDFLFNTIIRDGSKMLK [RPN14],2.05 ± 0.11,2.55 ± 0.095,3.03 ± 0.15,1.38 ± 0.068
KRDQYLKSASKETAPVI [RPL28],2.7 ± 0.12,2.69 ± 0.12,2.59 ± 0.065,2.43 ± 0.13
EYEEWQKSVSLLSSESN [YDL116W/NUP84],2.93 ± 0.055,3.02 ± 0.077,2.84 ± 0.053,2.73 ± 0.054
AENDVIEATDLGNIASS [BRR2],3.05 ± 0.075,3.17 ± 0.086,3.19 ± 0.064,3.27 ± 0.056
KDKLREFIPHSTEYMMQ [RPN6],3.46 ± 0.11,3.22 ± 0.11,2.83 ± 0.075,2.63 ± 0.087
SAASIPPQQTYHFPIFN [RPN4],2.55 ± 0.044,2.83 ± 0.045,2.52 ± 0.035,2.68 ± 0.031
PLDTIETELPTLSLPDS [SMC1],3 ± 0.12,2.92 ± 0.12,2.92 ± 0.083,3.09 ± 0.089
AAGNASSLPPGEILLPD [SNF5],3.15 ± 0.077,3.2 ± 0.063,3.1 ± 0.06,3.3 ± 0.053
IVWRFISENTFPNGFKN [RPC34],1.84 ± 0.06,2.05 ± 0.042,2.06 ± 0.077,2.33 ± 0.046
AMIALSMILIQQTEKLN [RPN2],1.32 ± 0.077,1.35 ± 0.066,1.45 ± 0.14,1.6 ± 0.064
NTEQGDSDELGGESMEG [SNM1],3.45 ± 0.1,3.54 ± 0.11,3.4 ± 0.093,3.39 ± 0.085
WIRLRTNNTIRYNAKRR [RPL39],2.88 ± 0.12,2.65 ± 0.083,2.93 ± 0.1,2.72 ± 0.066
ALPDAVTIIEPKEEEPI [RPS3],2.93 ± 0.059,2.99 ± 0.065,3.06 ± 0.061,3.04 ± 0.058
MPNIELYLKVIPMDFIR [SSN2],2.22 ± 0.072,2.14 ± 0.076,1.95 ± 0.082,2.54 ± 0.079
